Reference: patent publication US20100183544A1 (CSL, published 2010)

T1: IL-11R-Fc
T1 sequence (Q64385 whole entry, species assumed, looked up): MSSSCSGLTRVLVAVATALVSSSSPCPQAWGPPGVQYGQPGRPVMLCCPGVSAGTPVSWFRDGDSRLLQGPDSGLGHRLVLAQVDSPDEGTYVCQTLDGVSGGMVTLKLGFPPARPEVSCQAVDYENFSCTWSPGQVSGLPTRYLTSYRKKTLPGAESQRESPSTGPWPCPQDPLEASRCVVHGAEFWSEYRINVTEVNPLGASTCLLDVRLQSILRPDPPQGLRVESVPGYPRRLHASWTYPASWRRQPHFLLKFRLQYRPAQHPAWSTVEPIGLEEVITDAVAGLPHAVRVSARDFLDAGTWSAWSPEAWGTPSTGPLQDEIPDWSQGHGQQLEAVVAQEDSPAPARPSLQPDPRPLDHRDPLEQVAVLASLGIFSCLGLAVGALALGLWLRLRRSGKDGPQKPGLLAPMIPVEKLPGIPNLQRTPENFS

T2: murine IL-11R on Ba/F3 cells stably transfected with murine IL-11R/gp130 (murine, UniProt Q64385 24-432)
T2 sequence (looked up): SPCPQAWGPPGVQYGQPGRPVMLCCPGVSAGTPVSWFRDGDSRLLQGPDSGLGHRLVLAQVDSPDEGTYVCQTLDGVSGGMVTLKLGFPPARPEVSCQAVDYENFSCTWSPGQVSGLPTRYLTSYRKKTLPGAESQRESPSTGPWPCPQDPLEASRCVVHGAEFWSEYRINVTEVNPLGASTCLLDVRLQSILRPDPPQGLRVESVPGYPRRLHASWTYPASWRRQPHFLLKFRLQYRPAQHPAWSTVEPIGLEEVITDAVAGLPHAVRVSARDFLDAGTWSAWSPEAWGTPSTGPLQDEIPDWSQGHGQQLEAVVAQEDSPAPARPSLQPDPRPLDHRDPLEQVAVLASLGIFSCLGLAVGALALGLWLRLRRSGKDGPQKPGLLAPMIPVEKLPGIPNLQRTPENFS


Key:
[1] = molecular target: T1, IL-11R-Fc; experiment: competition ELISA on IL-11R-Fc; reference murine W147A IL-11
[2] = molecular target: T2, murine IL-11R on Ba/F3 cells stably …; experiment: cell-based or functional assay
[3] = molecular target: T1, IL-11R-Fc; experiment: IL-11R binding ELISA; reference non-PEGylated mutein

| fold higher binding affinity than murine W147A IL-11 [1] | fold reduction against non-PEGylated mutein in antagonism of IL-11-induced Ba/F3 cell proliferation [2] | fold reduction of IL-11R binding affinity relative to non-PEGylated mutein [3] | Molecule |
| --- | --- | --- | --- |
| 20 fold | – | – | IL-11 mutein of SEQ ID NO: 1 (murine IL-11 with AMSAG at positions 58-62 replaced by PAIDY and W147A), N-terminal His-tagged (from UniProt P47873 22-199) (ligand) |
| – | ~10 fold | 5 fold | PEGylated IL-11 mutein (SEQ ID NO: 3 with a single 40 kDa PEG on the Cys at position 147) (ligand, mPEG2-maleimide (single 40 kDa PEG moiety) on the Cys residue introduced at position 147 (mature murine IL-11 numbering)) VSSDPRADLDSAVLLTRSLLADTRQLAAQMRDKFPADGDHSLDSLPTLPAIDYTLGSLQLPGVLTRLRVDLMSYLRHVQWLRRAGGPSLKTLEPELGALQARLERLLRRLQLLMSRLALPQAAPDQPVIPLGPPASACGSIRAAHAILGGLHLTLDWAVRGLLLLKTRL |
